Data on eleven molecules can be found in publication PMC5680807 (mAbs, 2017).

B1: AFD.v9 (Fab, V domains shown)
VH: EVQLVQSGPELKKPGASVKVSCKASGYTFTNYGMNWVRQAPGQGLEWMGWINTYTGETTYAEDFKGRFVFSLDTSVSTAYLQISSLKAEDTAVYYCEREGGVNNWGQGTLVTVSS
VL: DIQVTQSPSSLSASVGDRVTITCITSTSIESDMSWYQQKPGKVPKLLISGGNTLRPGVPSRFSGSGSGTDFTLTISSLQPEDVATYYCLQSDSLPYTFGQGTKVEIK
B2: AFD.v7 (Fab, V domains shown)
VH: EVQLVQSGPELKKPGASVKVSCKASGYTFTNYGMNWVRQAPGQGLEWMGWINTYTGETTYAEDFKGRFVFSLDTSVSTAYLQISSLKAEDTAVYYCEREGGVNNWGQGTLVTVSS
VL: DIQVTQSPSSLSASVGDRVTITCITSTDIESDMNWYQQKPGKVPKLLISGGNTLRPGVPSRFSGSGSGTDFTLTISSLQPEDVATYYCLQSESLPYTFGQGTKVEIK
B3: AFD.v3 (Fab, V domains shown)
VH: EVQLVQSGPELKKPGASVKVSCKASGYTFTNYGMNWVRQAPGQGLEWMGWINTYTGETTYADDFKGRFVFSLDTSVSTAYLQISSLKAEDTAVYYCEREGGVNNWGQGTLVTVSS
VL: DIQVTQSPSSLSASVGDRVTITCITSTDIDSDMNWYQQKPGKVPKLLISGGNTLRPGVPSRFSGSGSGTDFTLTISSLQPEDVATYYCLQSDSLPYTFGQGTKVEIK
B4: AFD.v8 (Fab, V domains shown)
VH: EVQLVQSGPELKKPGASVKVSCKASGYTFTNYGMNWVRQAPGQGLEWMGWINTYTGETTYAEDFKGRFVFSLDTSVSTAYLQISSLKAEDTAVYYCEREGGVNNWGQGTLVTVSS
VL: DIQVTQSPSSLSASVGDRVTITCITSTSIESDMNWYQQKPGKVPKLLISGGNTLRPGVPSRFSGSGSGTDFTLTISSLQPEDVATYYCLQSDSLPYTFGQGTKVEIK
B5: AFD.v14 (Fab, V domains shown)
VH: EVQLVQSGPELKKPGASVKVSCKASGYTFTNYGMNWVRQAPGQGLEWMGWINTYTGETTYAEDFKGRFVFSLDTSVSTAYLQISSLKAEDTAVYYCEREGGVSNWGQGTLVTVSS
VL: DIQVTQSPSSLSASVGDRVTITCITSTSIESDMNWYQQKPGKVPKLLISGGNTLRPGVPSRFSGSGSGTDFTLTISSLQPEDVATYYCLQSDSLPYTFGQGTKVEIK
B6: AFD.v1 (Fab, V domains shown)
VH: EVQLVQSGPELKKPGASVKVSCKASGYTFTNYGMNWVRQAPGQGLEWMGWINTYTGETTYADDFKGRFVFSLDTSVSTAYLQISSLKAEDTAVYYCEREGGVNNWGQGTLVTVSS
VL: DIQVTQSPSSLSASVGDRVTITCITSTSIDDDMNWYQQKPGKVPKLLISGGNTLRPGVPSRFSGSGSGTDFTLTISSLQPEDVATYYCLQSDSLPYTFGQGTKVEIK
B7: AFD.v2 (Fab, V domains shown)
VH: EVQLVQSGPELKKPGASVKVSCKASGYTFTNYGMNWVRQAPGQGLEWMGWINTYTGETTYADDFKGRFVFSLDTSVSTAYLQISSLKAEDTAVYYCEREGGVNNWGQGTLVTVSS
VL: DIQVTQSPSSLSASVGDRVTITCITSTDIEDDMNWYQQKPGKVPKLLISGGNTLRPGVPSRFSGSGSGTDFTLTISSLQPEDVATYYCLQSDSLPYTFGQGTKVEIK
B8: AFD.v4 (Fab, V domains shown)
VH: EVQLVQSGPELKKPGASVKVSCKASGYTFTNYGMNWVRQAPGQGLEWMGWINTYTGETTYADDFKGRFVFSLDTSVSTAYLQISSLKAEDTAVYYCEREGGVNNWGQGTLVTVSS
VL: DIQVTQSPSSLSASVGDRVTITCITSTDIDDSMNWYQQKPGKVPKLLISGGNTLRPGVPSRFSGSGSGTDFTLTISSLQPEDVATYYCLQSDSLPYTFGQGTKVEIK
B9: AFD.v6 (Fab, V domains shown)
VH: EVQLVQSGPELKKPGASVKVSCKASGYTFTNYGMNWVRQAPGQGLEWMGWINTYTGETTYAEDFKGRFVFSLDTSVSTAYLQISSLKAEDTAVYYCEREGGVNNWGQGTLVTVSS
VL: DIQVTQSPSSLSASVGDRVTITCITSTDIESDMNWYQQKPGKVPKLLISGGNTLRPGVPSRFSGSGSGTDFTLTISSLQPEDVATYYCLQSDSLPYTFGQGTKVEIK
B10: AFD.v5 (Fab, V domains shown)
VH: EVQLVQSGPELKKPGASVKVSCKASGYTFTNYGMNWVRQAPGQGLEWMGWINTYTGETTYADDFKGRFVFSLDTSVSTAYLQISSLKAEDTAVYYCEREGGVNNWGQGTLVTVSS
VL: DIQVTQSPSSLSASVGDRVTITCITSTSIDSSMNWYQQKPGKVPKLLISGGNTLRPGVPSRFSGSGSGTDFTLTISSLQPEDVATYYCLQSDSLPYTFGQGTKVEIK

The target in one test is human complement factor D (CFD) (Homo sapiens, UniProt P00746). The test is described as follows: SPR.
One may read the Kd as the equilibrium constant for the complex coming apart. Turning to B1, the Kd worked out at 0.03 nM.
For the molecule B2, the Kd was ≤ 0.01 nM.
On the same count and under the same terms, next, B3: ≤ 0.01 nM; B4: 0.0167 ± 0.0044 nM; B5: 0.0256 ± 0.0063 nM.
The same measure, in the same setting: next, B6: ≤ 0.01 nM; B7: ≤ 0.01 nM.
Take B8: the Kd came out at 0.026 nM.
As to B9, the Kd is ≤ 0.01 nM.
The same measure, in the same setting: to B10 belongs 0.28 nM.

A further test addresses basic species of AFD (VL Asp-30 isomerized to the cyclic intermediate form).
Assay: not given
In turn, “human complement factor D (CFD) (from UniProt P00746 26-253) (enzyme)” had a fold decrease in CFD-binding affinity against AFD of 2 fold.
